Assay in all cases: SPR; no nucleotide or Mg2+ listed in running buffer; n = 2; SPR (BIACORE 3000): 20 mM Hepes-NaOH pH 7.5, 100 mM NaCl, 1 mM DTT, 0.005% Tween-20; 20 μl/min, 3 min association and 3 min dissociation; temperature not stated
Common to all, as to settings: protein: recombinant; tags: C-terminal FLAG on xMsh6; copies: 1;1; label: 3' biotin on strand 1; blunt, A:C mismatch (A at strand 1 position 22, C in strand 2)

Data set [1] concerns the target xMutSα ΔN (xMsh2-xMsh6ΔN-FLAG) (Xenopus laevis, UniProt A0A1B4WRB1;A0A1B4WRB2 1-932;=M+324-1340, internal_change).
The target in data set [2] is xMutSα PIP (xMsh2-xMsh6PIP-FLAG) (Xenopus laevis, UniProt A0A1B4WRB1;A0A1B4WRB2 1-932;1-1340, Q4A;F10A;F11A).
The target of data set [3] is xMutSα WT (xMsh2-xMsh6-FLAG) (Xenopus laevis, UniProt A0A1B4WRB1;A0A1B4WRB2 1-932;1-1340).
Sequence of xMutSα WT (xMsh2-xMsh6-FLAG) (chain, as listed by the source, chain 1 of 2): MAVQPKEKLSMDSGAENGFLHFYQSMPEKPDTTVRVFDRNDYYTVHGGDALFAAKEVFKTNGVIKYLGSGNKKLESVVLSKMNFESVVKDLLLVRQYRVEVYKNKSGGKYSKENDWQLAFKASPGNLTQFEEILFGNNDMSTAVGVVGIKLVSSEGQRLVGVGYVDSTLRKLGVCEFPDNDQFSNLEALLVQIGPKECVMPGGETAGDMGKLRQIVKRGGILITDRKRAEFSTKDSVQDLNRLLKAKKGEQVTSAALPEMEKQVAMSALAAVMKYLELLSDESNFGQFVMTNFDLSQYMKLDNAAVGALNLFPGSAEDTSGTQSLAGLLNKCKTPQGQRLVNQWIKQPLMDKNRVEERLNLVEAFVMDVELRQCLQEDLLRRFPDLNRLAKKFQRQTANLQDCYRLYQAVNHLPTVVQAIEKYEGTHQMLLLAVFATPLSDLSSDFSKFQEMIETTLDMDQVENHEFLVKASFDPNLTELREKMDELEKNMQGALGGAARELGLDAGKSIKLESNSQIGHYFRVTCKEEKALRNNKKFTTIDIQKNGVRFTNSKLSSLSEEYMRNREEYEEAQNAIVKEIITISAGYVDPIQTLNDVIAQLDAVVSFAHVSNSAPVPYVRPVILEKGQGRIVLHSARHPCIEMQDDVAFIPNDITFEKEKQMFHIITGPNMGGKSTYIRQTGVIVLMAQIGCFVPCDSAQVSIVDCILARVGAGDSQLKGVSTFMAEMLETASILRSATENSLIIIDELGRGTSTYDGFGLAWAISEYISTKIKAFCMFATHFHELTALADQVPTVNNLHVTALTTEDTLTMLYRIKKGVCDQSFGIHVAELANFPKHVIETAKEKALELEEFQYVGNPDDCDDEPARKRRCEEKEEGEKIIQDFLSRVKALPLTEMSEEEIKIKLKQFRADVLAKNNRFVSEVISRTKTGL
Sequence of xMutSα WT (xMsh2-xMsh6-FLAG) (chain, as listed by the source, chain 2 of 2): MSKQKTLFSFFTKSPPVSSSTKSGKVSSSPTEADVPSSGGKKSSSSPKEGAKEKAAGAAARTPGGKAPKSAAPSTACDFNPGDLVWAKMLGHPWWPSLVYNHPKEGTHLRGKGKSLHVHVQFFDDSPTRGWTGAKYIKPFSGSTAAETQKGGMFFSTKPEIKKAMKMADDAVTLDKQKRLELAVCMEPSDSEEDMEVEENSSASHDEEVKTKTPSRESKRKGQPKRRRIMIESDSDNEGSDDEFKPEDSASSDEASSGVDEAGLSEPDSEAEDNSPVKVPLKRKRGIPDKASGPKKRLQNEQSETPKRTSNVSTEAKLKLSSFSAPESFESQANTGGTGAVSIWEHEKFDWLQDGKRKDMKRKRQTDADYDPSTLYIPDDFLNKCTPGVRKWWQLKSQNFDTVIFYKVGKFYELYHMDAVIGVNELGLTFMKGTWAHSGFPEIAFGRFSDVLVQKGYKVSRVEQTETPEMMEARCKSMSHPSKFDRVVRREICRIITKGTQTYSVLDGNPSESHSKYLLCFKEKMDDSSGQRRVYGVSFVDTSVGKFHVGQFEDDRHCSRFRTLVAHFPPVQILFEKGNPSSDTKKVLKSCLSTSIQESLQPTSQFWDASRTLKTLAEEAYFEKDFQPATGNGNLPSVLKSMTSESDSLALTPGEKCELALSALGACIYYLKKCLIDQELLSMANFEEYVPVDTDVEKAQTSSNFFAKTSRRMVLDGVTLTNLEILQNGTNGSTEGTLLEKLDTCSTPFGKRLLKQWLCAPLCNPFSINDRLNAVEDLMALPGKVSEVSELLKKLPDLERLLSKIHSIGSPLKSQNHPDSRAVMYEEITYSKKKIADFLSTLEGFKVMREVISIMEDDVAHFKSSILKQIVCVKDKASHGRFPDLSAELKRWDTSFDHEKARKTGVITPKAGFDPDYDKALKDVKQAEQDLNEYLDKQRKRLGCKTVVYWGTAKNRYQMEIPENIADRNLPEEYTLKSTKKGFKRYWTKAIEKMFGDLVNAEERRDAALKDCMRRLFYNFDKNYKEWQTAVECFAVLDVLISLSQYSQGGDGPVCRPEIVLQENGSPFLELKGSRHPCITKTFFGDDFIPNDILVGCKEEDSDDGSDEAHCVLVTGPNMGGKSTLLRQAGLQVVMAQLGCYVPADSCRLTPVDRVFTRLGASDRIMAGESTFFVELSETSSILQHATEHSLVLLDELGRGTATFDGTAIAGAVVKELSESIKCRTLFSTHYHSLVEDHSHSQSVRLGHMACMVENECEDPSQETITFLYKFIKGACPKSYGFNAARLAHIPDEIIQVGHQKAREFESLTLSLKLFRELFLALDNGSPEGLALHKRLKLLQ

Sequence of xMutSα ΔN (xMsh2-xMsh6ΔN-FLAG) (chain, as listed by the source | mutant, chain 1 of 2): as the sequence (chain, as listed by the source, chain 1 of 2) above
Sequence of xMutSα ΔN (xMsh2-xMsh6ΔN-FLAG) (chain, as listed by the source | mutant, chain 2 of 2): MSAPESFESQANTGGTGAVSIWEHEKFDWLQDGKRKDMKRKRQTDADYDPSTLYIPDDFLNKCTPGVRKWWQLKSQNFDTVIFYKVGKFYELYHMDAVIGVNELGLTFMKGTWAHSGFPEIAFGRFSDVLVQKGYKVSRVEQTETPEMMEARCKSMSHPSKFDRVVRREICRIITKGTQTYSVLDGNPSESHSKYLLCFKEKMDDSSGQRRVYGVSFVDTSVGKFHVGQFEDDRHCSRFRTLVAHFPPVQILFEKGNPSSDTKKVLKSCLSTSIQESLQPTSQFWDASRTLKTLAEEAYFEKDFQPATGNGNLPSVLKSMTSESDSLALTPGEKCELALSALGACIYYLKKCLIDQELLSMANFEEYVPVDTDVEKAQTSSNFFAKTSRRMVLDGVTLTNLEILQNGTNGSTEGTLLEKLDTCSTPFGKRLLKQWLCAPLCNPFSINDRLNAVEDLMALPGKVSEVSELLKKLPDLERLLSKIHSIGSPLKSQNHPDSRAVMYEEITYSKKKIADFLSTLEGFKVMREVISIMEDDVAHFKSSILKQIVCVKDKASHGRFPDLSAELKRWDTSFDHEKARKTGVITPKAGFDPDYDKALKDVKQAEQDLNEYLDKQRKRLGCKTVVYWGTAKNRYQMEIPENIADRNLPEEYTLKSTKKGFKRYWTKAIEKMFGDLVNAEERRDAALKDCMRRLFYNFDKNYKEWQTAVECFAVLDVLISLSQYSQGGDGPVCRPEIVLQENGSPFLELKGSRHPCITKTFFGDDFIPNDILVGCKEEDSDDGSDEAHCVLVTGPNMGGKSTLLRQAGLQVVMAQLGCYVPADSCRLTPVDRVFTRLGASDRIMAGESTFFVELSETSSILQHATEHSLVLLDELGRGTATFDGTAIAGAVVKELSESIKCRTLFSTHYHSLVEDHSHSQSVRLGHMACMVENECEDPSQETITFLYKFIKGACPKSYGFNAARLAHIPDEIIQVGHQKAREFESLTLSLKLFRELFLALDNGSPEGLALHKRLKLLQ

B1: 42 bp A:C mismatch oligo DNA (dsDNA)
DNA 1: GGGTGACCGTACTGCATCTCGAGATCCATGTTACTGCGTCAG
DNA 2: CTGACGCAGTAACATGGATCCCGAGATGCAGTACGGTCACCC
For the molecule B1, the values for the dissociation constant (Kd) in data set [1], in data set [2] and in data set [3] were 3.6 nM, 4.4 nM and 2.2 nM, respectively.

The record behind these values is publication PMC4942255, “MutSα maintains the mismatch repair capability by inhibiting PCNA unloading”.
